{
  "source": "paper PMC2788227",
  "about": "(PLoS ONE, 2009)",
  "key": {"[1]": {"test_system": "CC(=O)[C@@H](O)[C@H](O)COP(=O)(O)O", "assay": "purified protein", "conditions": "pH 7.8; 22.0 °C"}, "[2]": {"test_system": "NC(=O)C1=CN([C@@H]2O[C@H](COP(=O)(O)OP(=O)(O)OC[C@H]3O[C@@H](n4cnc5c(N)ncnc54)[C@H](OP(=O)(O)O)[C@@H]3O)[C@@H](O)[C@H]2O)C=CC1", "assay": "purified protein", "conditions": "pH 7.8; 22.0 °C; varied: cofactor"}},
  "data": [
    {"substance": "F. tularensis MEP synthase (IspC; 1-deoxy-D-xylulose 5-phosphate reductoisomerase) (Francisella tularensis subsp. holarctica LVS)", "values": [
      {"measurement": "Km", "setting": "[1]", "value": "103.7 ± 12.1", "unit": "µM"},
      {"measurement": "Km", "setting": "[2]", "value": "13.3 ± 1.5", "unit": "µM"}
    ]}
  ]
}
